According to patent US20200283482A1, “BICYCLIC PEPTIDE LIGAND PRR-A CONJUGATES AND USES THEREOF” (BicycleRD Limited, priority 2017, published 2020):
Starred links: 1 amine or outer side, 2 acyl side, 3 side chain; linkers in the order of their positions; H or OH if unused. Positions of bridges follow the written chain, without caps; N, C: chain ends. Non-standard residues stand in square brackets, D forms with d. Residues, ends and D or L forms follow the SMILES beside them. *: point of attachment. X9 = CCOCc1nc2c(NC(=O)[C@H](CCCCNC(=O)OCc3ccc(NC(=O)[C@H](CCCNC(N)=O)NC(=O)[C@@H](NC(=O)Cn4cc(CCC(=O)*)nn4)C(C)C)cc3)NC(C)=O)nc3ccccc3c2n1CC(C)(C)O; X14 = CCCOc1nc(NC(=O)CCCNC(=O)OCc2ccc(NC(=O)[C@H](CCCNC(N)=O)NC(=O)[C@@H](NC(=O)Cn3cc(CCC(=O)*)nn3)C(C)C)cc2)c2[nH]c(=O)n(Cc3ccc(OCCN(C)C)nc3)c2n1; X13 = CCOCc1nc2c(NC(=O)N(C)CCN(C)C(=O)OCc3ccc(NC(=O)[C@H](CCCNC(N)=O)NC(=O)[C@@H](NC(=O)Cn4cc(CCC(=O)*)nn4)C(C)C)cc3)nc3ccccc3c2n1CC(C)(C)O; X16 = CCCOc1nc(NC(=O)CCCSSC(C)CCC(=O)*)c2[nH]c(=O)n(Cc3ccc(OCCN(C)C)nc3)c2n1; X15 = CCOCc1nc2c(NC(=O)CCCSSC(C)CCC(=O)*)nc3ccccc3c2n1CC(C)(C)O; Resiquimod = CCOCc1nc2c(N*)nc3ccccc3c2n1CC(C)(C)O; 1Nal = N[C@@H](Cc1cccc2ccccc12)C(=O)O; TBMB = c1c(C[*:1])cc(C[*:3])cc1C[*:2]; Glutaryl = O=C(CCCC(=O)[*:2])[*:1]; Tle = CC(C)(C)[C@H](N)C(=O)O; βAla = NCCC(=O)O; Sar = CNCC(=O)O

Tests used:
[1] = Blood stability, mouse; type: in vitro ADME, CD-1 mouse; conditions: male
Procedure: CD-1 mouse blood (n≥2, male, fasted overnight) is collected from animals housed at an internal facility. (EDTA-K2 is used as anticoagulant)
The test compounds and positive control stock solutions are prepared to 10 mM in DMSO or ultrapure water. Control compounds bisacodyl, enalapril and propantheline known to be metabolised by blood are also incubated alongside each batch of test compounds I-7, I-22, I-24, I-25, I-27, and I-29 to I-33. The dosing solutions of test compounds and controls are prepared by diluting the stock solution with 45% MeOH/H2O to achieve 100 uM. Test compound solutions (final incubation concentration=2 μM) are incubated with blood (final DMSO concentration≤1%) at six different time points (0, 1, 2, 4, 6 and 24 hours) in duplicate (n=2). The reaction is terminated by adding 100 uL ultra-pure water, mixing well, then adding 800 uL of 100% methanol containing 200 ng/mL tolbutamide and 200 ng/mL labetalol as internal standards. Samples are then vortexed and centrifuged at 3200×g for 20 minutes. Following centrifugation, the concentration of test compound in the supernatant is determined semi-quantitatively by LC-MS/MS. The percentage of test compound remaining at the individual time points relative to the 0 hour sample is then reported. The percent remaining of test compound after incubation in blood is calculated using following equation: Percent Remaining=100×(PAR at appointed incubation time/PAR at T0 time) where PAR is the peak area ratio of analyte versus internal standard (IS).

[2] = Plasma stability, human; type: in vitro ADME; conditions: human, plasma, pH 7.4
Procedure: (§1) The pooled frozen mouse, rat, dog, monkey or human plasma is thawed in a water bath at 37° C. prior to experiment. Plasma is centrifuged at 4000 rpm for 5 min and the clots are removed if any. […] For positive controls, 100 μM intermediate solution is prepared by diluting 20 μL of the stock solution with 180 μL 45% MeOH/H2O. […] For compounds I-7 to […]-17, […]-22, and […]-33, at each time point (0, 1, 2, 4, 6 and 24 hr), reactions were stopped by removing the plates from water bath and 200 μL 20 mM NH4OAC mix well first and then adding 800 μL of ice-cold stop solution (200 ng/mL Labetalol, 200 ng/mL Tolbutamide, 500 ng/mL N6-Ben and 40 mM DBAA in 100% Methanol). […] Sample plates were vortexed immediately on a plate shaker at 800 rpm for 10 min and then centrifuged at 4,000 rpm for 10 min. An aliquot of supernatant (200 μL) is transferred from each well before submitting to LC-MS/MS analysis. The percentage of test compound remaining at the individual time points relative to the 0 hour sample is calculated using following equation: Percent Remaining=100×(PAR at appointed incubation time/PAR at T0 time) where PAR is the peak area ratio of analyte versus internal standard (IS).

[3] = Plasma stability, cyno; type: in vitro ADME; conditions: cynomolgus monkey, plasma, pH 7.4
Procedure: as §1

[4] = Plasma stability, rat; type: in vitro ADME; conditions: rat, plasma, pH 7.4
Procedure: as §1

[5] = Plasma stability, mouse; type: in vitro ADME; conditions: mouse, plasma, pH 7.4
Procedure: as §1

Compound	half-life at 2 μM ([1]; CD-1, mouse) [h]	half-life at 2 μM [2] [h]	half-life at 2 μM [3] [h]	half-life at 2 μM [4] [h]	half-life at 2 μM [5] [h]	half-life at 2 μM ([1]; CD-1 mouse blood, 2 μM, read-out: T1/2 (mouse)) [h]
CCOCc1nc2c(NC(=O)N(C)CCN(C)C(=O)OCc3ccc(NC(=O)[C@H](CCCNC(N)=O)NC(=O)[C@@H](NC(=O)Cn4cc(CCC(=O)NCCC(=O)N(C)CC(=O)N(C)CC(=O)N(C)CC(=O)N(C)CC(=O)N(C)CC(=O)N(C)CC(=O)N(C)CC(=O)N(C)CC(=O)N(C)CC(=O)N(C)CC(=O)N[C@@H](C)C(=O)N[C@H]5CSCc6cc7cc(c6)CSC[C@H](NC(=O)[C@@H](C)NC(=O)[C@H](Cc6cccc8ccccc68)NC(=O)[C@H](CCC(=O)O)NC(=O)[C@H](CC(N)=O)NC(=O)[C@@H](C)NC5=O)C(=O)N[C@@H](CCC(=O)O)C(=O)N[C@@H](CC(=O)O)C(=O)N[C@@H](Cc5ccccc5)C(=O)N[C@@H](Cc5ccc(O)cc5)C(=O)N[C@@H](CC(=O)O)C(=O)N[C@@H](C(C)(C)C)C(=O)N[C@H](C(N)=O)CSC7)nn4)C(C)C)cc3)nc3ccccc3c2n1CC(C)(C)O [1-31] ({X13-βAla}-[Sar][Sar][Sar][Sar][Sar][Sar][Sar][Sar][Sar][Sar]AC[dA]NE[1Nal][dA]CEDFYD[Tle]C-NH2; linker 12-18-25 via TBMB)	6 to 24	–	–	–	–	–
CCCOc1nc(NC(=O)CCCSSC(C)CCC(=O)NCCC(=O)N(C)CC(=O)N(C)CC(=O)N(C)CC(=O)N(C)CC(=O)N(C)CC(=O)N(C)CC(=O)N(C)CC(=O)N(C)CC(=O)N(C)CC(=O)N(C)CC(=O)N[C@@H](C)C(=O)N[C@H]2CSCc3cc4cc(c3)CSC[C@H](NC(=O)[C@@H](C)NC(=O)[C@H](Cc3cccc5ccccc35)NC(=O)[C@H](CCC(=O)O)NC(=O)[C@H](CC(N)=O)NC(=O)[C@@H](C)NC2=O)C(=O)N[C@@H](CCC(=O)O)C(=O)N[C@@H](CC(=O)O)C(=O)N[C@@H](Cc2ccccc2)C(=O)N[C@@H](Cc2ccc(O)cc2)C(=O)N[C@@H](CC(=O)O)C(=O)N[C@@H](C(C)(C)C)C(=O)N[C@H](C(N)=O)CSC4)c2[nH]c(=O)n(Cc3ccc(OCCN(C)C)nc3)c2n1 (stereo partly drawn) [I-23] ({X16-βAla}-[Sar][Sar][Sar][Sar][Sar][Sar][Sar][Sar][Sar][Sar]AC[dA]NE[1Nal][dA]CEDFYD[Tle]C-NH2; linker 12-18-25 via TBMB)	–	< 2	< 2	< 2	< 2	–
CCOCc1nc2c(NC(=O)[C@H](CCCCNC(=O)OCc3ccc(NC(=O)[C@H](CCCNC(N)=O)NC(=O)[C@@H](NC(=O)Cn4cc(CCC(=O)NCCC(=O)N(C)CC(=O)N(C)CC(=O)N(C)CC(=O)N(C)CC(=O)N(C)CC(=O)N(C)CC(=O)N(C)CC(=O)N(C)CC(=O)N(C)CC(=O)N(C)CC(=O)N[C@@H](C)C(=O)N[C@H]5CSCc6cc7cc(c6)CSC[C@H](NC(=O)[C@@H](C)NC(=O)[C@H](Cc6cccc8ccccc68)NC(=O)[C@H](CCC(=O)O)NC(=O)[C@H](CC(N)=O)NC(=O)[C@@H](C)NC5=O)C(=O)N[C@@H](CCC(=O)O)C(=O)N[C@@H](CC(=O)O)C(=O)N[C@@H](Cc5ccccc5)C(=O)N[C@@H](Cc5ccc(O)cc5)C(=O)N[C@@H](CC(=O)O)C(=O)N[C@@H](C(C)(C)C)C(=O)N[C@H](C(N)=O)CSC7)nn4)C(C)C)cc3)NC(C)=O)nc3ccccc3c2n1CC(C)(C)O [I-24] ({X9-βAla}-[Sar][Sar][Sar][Sar][Sar][Sar][Sar][Sar][Sar][Sar]AC[dA]NE[1Nal][dA]CEDFYD[Tle]C-NH2; linker 12-18-25 via TBMB)	6 to 24	> 24	> 24	6 to 24	6 to 24	–
CCOCc1nc2c(NC(=O)CCCC(=O)NCCC(=O)N(C)CC(=O)N(C)CC(=O)N(C)CC(=O)N(C)CC(=O)N(C)CC(=O)N(C)CC(=O)N(C)CC(=O)N(C)CC(=O)N(C)CC(=O)N(C)CC(=O)N[C@@H](C)C(=O)N[C@H]3CSCc4cc5cc(c4)CSC[C@H](NC(=O)[C@@H](C)NC(=O)[C@H](Cc4cccc6ccccc46)NC(=O)[C@H](CCC(=O)O)NC(=O)[C@H](CC(N)=O)NC(=O)[C@@H](C)NC3=O)C(=O)N[C@@H](CCC(=O)O)C(=O)N[C@@H](CC(=O)O)C(=O)N[C@@H](Cc3ccccc3)C(=O)N[C@@H](Cc3ccc(O)cc3)C(=O)N[C@@H](CC(=O)O)C(=O)N[C@@H](C(C)(C)C)C(=O)N[C@H](C(N)=O)CSC5)nc3ccccc3c2n1CC(C)(C)O [I-25] ({Resiquimod-Glutaryl-βAla}-[Sar][Sar][Sar][Sar][Sar][Sar][Sar][Sar][Sar][Sar]AC[dA]NE[1Nal][dA]CEDFYD[Tle]C-NH2; linker 12-18-25 via TBMB)	–	> 24	> 24	> 24	> 24	> 24
CCCOc1nc(NC(=O)CCCNC(=O)OCc2ccc(NC(=O)[C@H](CCCNC(N)=O)NC(=O)[C@@H](NC(=O)Cn3cc(CCC(=O)NCCC(=O)N(C)CC(=O)N(C)CC(=O)N(C)CC(=O)N(C)CC(=O)N(C)CC(=O)N(C)CC(=O)N(C)CC(=O)N(C)CC(=O)N(C)CC(=O)N(C)CC(=O)N[C@@H](C)C(=O)N[C@H]4CSCc5cc6cc(c5)CSC[C@H](NC(=O)[C@@H](C)NC(=O)[C@H](Cc5cccc7ccccc57)NC(=O)[C@H](CCC(=O)O)NC(=O)[C@H](CC(N)=O)NC(=O)[C@@H](C)NC4=O)C(=O)N[C@@H](CCC(=O)O)C(=O)N[C@@H](CC(=O)O)C(=O)N[C@@H](Cc4ccccc4)C(=O)N[C@@H](Cc4ccc(O)cc4)C(=O)N[C@@H](CC(=O)O)C(=O)N[C@@H](C(C)(C)C)C(=O)N[C@H](C(N)=O)CSC6)nn3)C(C)C)cc2)c2[nH]c(=O)n(Cc3ccc(OCCN(C)C)nc3)c2n1 [I-26] ({X14-βAla}-[Sar][Sar][Sar][Sar][Sar][Sar][Sar][Sar][Sar][Sar]AC[dA]NE[1Nal][dA]CEDFYD[Tle]C-NH2; linker 12-18-25 via TBMB)	–	< 2	< 2	< 2	< 2	–
CCOCc1nc2c(NC(=O)CCCSSC(C)CCC(=O)NCCC(=O)N(C)CC(=O)N(C)CC(=O)N(C)CC(=O)N(C)CC(=O)N(C)CC(=O)N(C)CC(=O)N(C)CC(=O)N(C)CC(=O)N(C)CC(=O)N(C)CC(=O)N[C@@H](C)C(=O)N[C@H]3CSCc4cc5cc(c4)CSC[C@H](NC(=O)[C@@H](C)NC(=O)[C@H](Cc4cccc6ccccc46)NC(=O)[C@H](CCC(=O)O)NC(=O)[C@H](CC(N)=O)NC(=O)[C@@H](C)NC3=O)C(=O)N[C@@H](CCC(=O)O)C(=O)N[C@@H](CC(=O)O)C(=O)N[C@@H](Cc3ccccc3)C(=O)N[C@@H](Cc3ccc(O)cc3)C(=O)N[C@@H](CC(=O)O)C(=O)N[C@@H](C(C)(C)C)C(=O)N[C@H](C(N)=O)CSC5)nc3ccccc3c2n1CC(C)(C)O (stereo partly drawn) [I-28] ({X15-βAla}-[Sar][Sar][Sar][Sar][Sar][Sar][Sar][Sar][Sar][Sar]AC[dA]NE[1Nal][dA]CEDFYD[Tle]C-NH2; linker 12-18-25 via TBMB)	–	< 2	2 to 6	< 2	< 2	–
CCOCc1nc2c(NC(=O)N(C)CCN(C)C(=O)OCc3ccc(NC(=O)[C@H](CCCNC(N)=O)NC(=O)[C@@H](NC(=O)Cn4cc(CCC(=O)NCCC(=O)N(C)CC(=O)N(C)CC(=O)N(C)CC(=O)N(C)CC(=O)N(C)CC(=O)N(C)CC(=O)N(C)CC(=O)N(C)CC(=O)N(C)CC(=O)N(C)CC(=O)N[C@@H](C)C(=O)N[C@H]5CSCc6cc7cc(c6)CSC[C@H](NC(=O)[C@@H](C)NC(=O)[C@H](Cc6cccc8ccccc68)NC(=O)[C@H](CCC(=O)O)NC(=O)[C@H](CC(N)=O)NC(=O)[C@@H](C)NC5=O)C(=O)N[C@@H](CCC(=O)O)C(=O)N[C@@H](CC(=O)O)C(=O)N[C@@H](Cc5ccccc5)C(=O)N[C@@H](Cc5ccc(O)cc5)C(=O)N[C@@H](CC(=O)O)C(=O)N[C@@H](C(C)(C)C)C(=O)N[C@H](C(N)=O)CSC7)nn4)C(C)C)cc3)nc3ccccc3c2n1CC(C)(C)O [I-31] ({X13-βAla}-[Sar][Sar][Sar][Sar][Sar][Sar][Sar][Sar][Sar][Sar]AC[dA]NE[1Nal][dA]CEDFYD[Tle]C-NH2; linker 12-18-25 via TBMB)	–	> 24	> 24	> 24	> 24	–
